Consider seven molecules from patent publication US20230357389A1 (Innovent, published 2023).

Broadly, the EC50 (read off the curve) is the midpoint of the concentration-response curve. Read a high EC50 (read off the curve) as weaker potency. What is called EC50 is the concentration that produces a half-maximal response. High values mean weaker potency, low ones greater potency. A word on the Kd: it is the equilibrium constant for the complex coming apart. As a reminder, the koff is the first-order rate constant of dissociation. One may read the kon as a measure of how fast the partners come together.

Test [1] concerns the target T1, human CLDN18.2 on the cell surface (human, UniProt P56856-2 1-261). Nature of the test: cell-based or functional assay.
Test [2] has as its target T1, human CLDN18.2 on the cell surface. As to the kind of experiment: flow cytometry (FACS) titration on NUGC-4 gastric cancer cells.
The target is the same in test [3]. Nature of the test: flow cytometry (FACS) titration on DAN-G-hCLDN18.2 pancreatic cancer cells. Background: Flow cytometry measures light scatter and fluorescence of single cells or particles in a stream.
For test [4] the target is unchanged. Nature of the test: flow cytometry (FACS) titration on CHO-hCLDN18.2 cells, PE anti-human Fc secondary antibody; the EC50 table prints no unit, nM is taken from the axis Log[Conc.(nM)]. The procedure:
(§1) Specifically, the cells to be tested (CHO-hCLDN18.2 and CHO-hCLDN18.1) obtained in Example 1 were counted and diluted to 1×10⁶ cells/ml, added to the U-shaped bottom 96-well plate at 100 μl/well, and then centrifuged at 500 g for 5 min before the cell culture medium was removed. […] The initial concentration of the antibody was 900 nM, and it was diluted three times serially, a total of 10 concentration points before leaving it on ice for 30 min, and removing the supernatant at 500 g for 5 min, and washing the cells with PBS once before adding goat anti-human Fc PE-labeled secondary antibody (Southern Biotech, J2815-5H87B) at 100 μl/well, and incubating in dark on ice for 30 min, removing the supernatant at 500 g for 5 min, and washing the cells with PBS once. 50 μl 1×PBS was used to resuspend cells and FACS was used for detection. GraphPad Prism software was used to analyze the experimental data and get FIG. 1 and FIG. 2.

In test [5] the target is T2, Human Claudin 18.2 (GenScrip, P50251802) (human, UniProt P56856-2 1-261, limits assumed).
T2 construct: Bought protein; also called human CLDN18.2
Nature of the test: SPR (Biacore T200), CLDN18.2 amine-coupled to chip, antibody as analyte, 1:1 model. The procedure:
After coupling, 1 M ethanolamine was injected to seal the remaining activation sites. The binding and dissociation between the chip surface antigen and the antibody in the mobile phase were detected by Biocore (GE Healthcare, T200) according to the manufacturer's instructions to obtain the affinity and kinetic constants. The serially diluted antibody (0-100 nM) flowed through the chip surface in order from low concentration to high concentration, with binding time of 180 s and dissociation time of 600 s. Finally, 10 mM Glycine pH 1.5 (GE Healthcare, BR-1003-54) was used to regenerate the chip. The resulting data were analyzed using the Biocore T200 analysis software and the dynamic analysis was conducted using the 1:1 combination model.

In test [6] the target is T3, human CLDN18.1 on the cell surface (human, UniProt P56856 1-261).
T3 construct: whole, on cells; also called CHO-hCLDN18.1
As to the kind of experiment: flow cytometry (FACS) titration on CHO-hCLDN18.1 cells, PE anti-human Fc secondary antibody. The procedure:
as §1

For test [7], the target named is T4, human CD3 complex on T cells (human, UniProt P07766 23-207; P04234 22-171; P09693 23-182; P20963 22-164).
T4 construct: whole, on cells; also called CD3 at the cellular level; Jurkat cells
As to the kind of experiment: flow cytometry on Jurkat cells (human CD3 complex), PE anti-human Fc secondary antibody; the EC50 table prints no unit, nM is taken from the axis Concentration of antibody (nM). From the text: Jurkat cells were immortalized human T lymphocytes, which expressed human CD3 complex. The cell line was used to detect the binding of the antibody of invention and the cell.

T4 sequence (P07766 23-207, chain 1 of 4): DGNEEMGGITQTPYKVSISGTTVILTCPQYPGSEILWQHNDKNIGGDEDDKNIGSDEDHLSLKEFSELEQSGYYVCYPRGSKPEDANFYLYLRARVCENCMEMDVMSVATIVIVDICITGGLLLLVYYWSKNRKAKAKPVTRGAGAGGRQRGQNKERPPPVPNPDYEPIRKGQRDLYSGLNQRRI
T4 sequence (P04234 22-171, chain 2 of 4): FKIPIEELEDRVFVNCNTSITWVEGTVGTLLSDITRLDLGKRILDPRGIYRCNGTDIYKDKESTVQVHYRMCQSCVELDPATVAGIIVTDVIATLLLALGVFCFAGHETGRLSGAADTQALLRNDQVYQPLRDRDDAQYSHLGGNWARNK
T4 sequence (P09693 23-182, chain 3 of 4): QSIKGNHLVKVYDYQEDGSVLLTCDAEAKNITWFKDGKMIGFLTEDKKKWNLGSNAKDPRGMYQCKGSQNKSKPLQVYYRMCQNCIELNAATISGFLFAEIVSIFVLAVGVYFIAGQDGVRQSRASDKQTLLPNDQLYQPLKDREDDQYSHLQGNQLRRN
T4 sequence (P20963 22-164, chain 4 of 4): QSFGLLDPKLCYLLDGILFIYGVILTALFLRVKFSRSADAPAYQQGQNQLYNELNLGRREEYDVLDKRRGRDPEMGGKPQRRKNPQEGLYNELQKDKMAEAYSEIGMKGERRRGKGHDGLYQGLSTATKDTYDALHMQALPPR

B1: bispecific antibody 030 (CLDN18.2 x CD3) (bispecific antibody, human IgG1, kappa, lambda, L234A L235A)
heavy 1: not shown
light 1: not shown
heavy 2: not shown
light 2: QAVVTQEPSLTVSPGGTVTLTCRSSTGAVTTSNYANWVQQKPGQAPRGLIGGTNKRAPGVPARFSGSLLGDKAALTLLGAQPEDEAEYYCALWYSNLWVFGQGTKLTVLGQPKAAPSVTLFPPSSEELQANKATLVCLISDFYPGAVTVAWKADSSPVKAGVETTTPSKQSNNKYAASSYLSLTPEQWKSHRSYSCQVTHEGSTVEKTVAPTECS
In the case of B1, in test [1], the “EC50 of PBMC-mediated killing of gastric cancer cell NUGC-4” value is less than 0.001 nM and the “EC50 of PBMC-mediated killing of pancreatic cancer cell DAN-G-hCLDN18.2” value was less than 0.1 pM.

B2: bispecific antibody 032 (CLDN18.2 x CD3) (bispecific antibody, human IgG1, kappa, lambda, L234A L235A)
heavy 1: not shown
light 1: not shown
heavy 2: not shown
light 2: QAVVTQEPSLTVSPGGTVTLTCRSSTGAVTTSNYANWVQQKPGQAPRGLIGGTNKRAPGVPARFSGSLLGDKAALTLLGAQPEDEAEYYCALWYSNLWVFGQGTKLTVLGQPKAAPSVTLFPPSSEELQANKATLVCLISDFYPGAVTVAWKADSSPVKAGVETTTPSKQSNNKYAASSYLSLTPEQWKSHRSYSCQVTHEGSTVEKTVAPTECS
Take B2: in test [1], the “EC50 of PBMC-mediated killing of gastric cancer cell NUGC-4” value was less than 0.001 nM and the “EC50 of PBMC-mediated killing of pancreatic cancer cell DAN-G-hCLDN18.2” value was less than 0.1 pM.

B3: bispecific antibody 033 (CLDN18.2 x CD3) (bispecific antibody, human IgG1, kappa, lambda, L234A L235A)
heavy 1: not shown
light 1: not shown
heavy 2: not shown
light 2: QAVVTQEPSLTVSPGGTVTLTCRSSTGAVTTSNYANWVQQKPGQAPRGLIGGTNKRAPGVPARFSGSLLGDKAALTLLGAQPEDEAEYYCALWYSNLWVFGQGTKLTVLGQPKAAPSVTLFPPSSEELQANKATLVCLISDFYPGAVTVAWKADSSPVKAGVETTTPSKQSNNKYAASSYLSLTPEQWKSHRSYSCQVTHEGSTVEKTVAPTECS
Consider B3, for which the “killing activity on NUGC-4 and DAN-G-hCLDN18.2 relative to 030 and 032” value in test [1] was ~1000 times lower than 030 and 032.

B4: control antibody zolbetuximab (antibody, human IgG1, kappa, V domains shown)
VH: QVQLQQPGAELVRPGASVKLSCKASGYTFTSYWINWVKQRPGQGLEWIGNIYPSDSYTNYNQKFKDKATLTVDKSSSTAYMQLSSPTSEDSAVYYCTRSWRGNSFDYWGQGTTLTVSS
VL: DIVMTQSPSSLTVTAGEKVTMSCKSSQSLLNSGNQKNYLTWYQQKPGQPPKLLIYWASTRESGVPDRFTGSGSGTDFTLTISSVQAEDLAVYYCQNDYSYPFTFGSGTKLEIKR
notes: also called Zmab; positive control antibody Zmab
With B4, the entries for the concentration giving a half-maximal response (EC50 (read off the curve)) in test [2] and in test [3] were approximately 3 nM and approximately 2 nM, respectively. Also, the EC50 in test [4] is 3.31 nM.

B5: anti-CLDN18.2 monoclonal antibody HB37A6 (antibody, human IgG1, kappa, V domains shown)
VH: EVQLLDSGGGLVQPGGSLRLSCAASGFTFSSYVMSWVRQAPGKGLNWVSTISHSGGSTYYADSVKGRFTISRDNSKNTLYLQMNSLRAEDTAVYYCAIDAPYYDILTGYRYWGQGTLVTVSS
VL: not shown
notes: also called whole human antibody HB37A6
Take B5: in test [2], the concentration giving a half-maximal response (EC50 (read off the curve)) is approximately 1 nM. Besides, in test [5], the dissociation constant Kd is 0.72 nM, the koff worked out at 0.000306 s⁻¹ and the kon amounted to 425000 M⁻¹ s⁻¹. The binding result in test [6] is “no binding”. The molecule also registered an EC50 in test [4] of 5.51 nM.

B6: anti-CD3 monoclonal antibody HzSP34.87 (antibody, human IgG1, lambda, L234A L235A, V domains shown)
VH: EVQLVESGGGLVQPGGSLKLSCAASGFTFNTYAMNWVRQASGKGLEWVGRIRSKYNNYATYYADSVKDRFTISRDDSKSTLYLQMNSLKTEDTAVYYCARHYNFGQSYVSWFAYWGQGTTVTVSS
VL: QAVVTQEPSLTVSPGGTVTLTCRSSTGAVTTSNYANWVQQKPGQAPRGLIGGTNKRAPGVPARFSGSLLGDKAALTLLGAQPEDEAEYYCALWYSNLWVFGQGTKLTVLG
With B6, in test [7], the EC50 was determined as 3.42 nM.

B7: anti-CD3 monoclonal antibody HzSP34.97 (antibody, human IgG1, lambda, L234A L235A, V domains shown)
VH: EVQLVESGGGLVQPGGSLKLSCAASGFTFNTYAMNWVRQASGKGLEWVGRIRSKAGGYATYYADSVKDRFTISRDDSKSTLYLQMNSLKTEDTAVYYCARHGNFGQSYVSWFAYWGQGTTVTVSS
VL: QAVVTQEPSLTVSPGGTVTLTCRSSTGAVTTSNYANWVQQKPGQAPRGLIGGTNKRAPGVPARFSGSLLGDKAALTLLGAQPEDEAEYYCALWYSNLWVFGQGTKLTVLG
In test [7], B7 registered an EC50 of 3 nM.
